The target in this experiment is T1, 6his-SEPT9 (human, UniProt Q9UHD8 2-586).
T1 construct: SEPT9 isoform 1 (SEPT9_i1), human; PCR amplified from the GFP-SEPT9_i1 plasmid and cloned into the in-house plasmid pES; The forward primer reads ENLYFQG (a TEV site, surmised) followed by KKSYSGG, i.e. SEPT9 from its second codon; the reverse primer ends with PEAPEM and stop codons; also called 6his-tagged SEPT9; 6his tagged SEPT9; source: E. coli, purified (IMAC, approx. 70% purity; desalted …)
T1 sequence (looked up): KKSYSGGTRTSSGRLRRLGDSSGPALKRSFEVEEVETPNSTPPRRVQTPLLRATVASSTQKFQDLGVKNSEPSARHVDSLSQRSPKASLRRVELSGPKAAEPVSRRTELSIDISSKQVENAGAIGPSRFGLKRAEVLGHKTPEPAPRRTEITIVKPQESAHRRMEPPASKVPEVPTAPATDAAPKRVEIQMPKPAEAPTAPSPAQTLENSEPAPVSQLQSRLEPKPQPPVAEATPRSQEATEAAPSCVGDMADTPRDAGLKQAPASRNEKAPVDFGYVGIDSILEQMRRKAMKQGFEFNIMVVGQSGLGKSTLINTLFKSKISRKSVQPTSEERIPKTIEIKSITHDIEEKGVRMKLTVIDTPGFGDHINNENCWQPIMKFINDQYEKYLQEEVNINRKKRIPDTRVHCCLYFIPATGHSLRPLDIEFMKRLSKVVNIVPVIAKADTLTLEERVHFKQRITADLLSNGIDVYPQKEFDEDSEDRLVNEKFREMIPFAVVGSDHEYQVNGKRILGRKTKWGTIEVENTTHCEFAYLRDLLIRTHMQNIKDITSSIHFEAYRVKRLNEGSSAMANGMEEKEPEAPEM
Briefly: pull-down; GST fusion proteins immobilized on Glutathione Sepharose from the crude extract, incubated with 2 µM 6his-SEPT9 for 1 h in PBS; Western blot with anti-6his and anti-GST. As to conditions: both partners purified. For orientation: Immunoblotting shows a protein as a band on a membrane.

B1: GST-MYO6_(835-1294) (domain or fragment, UniProt Q9UM54 835-1294, looked up)
chain: PRIDGLVKVGTLKKRLDKFNEVVSVLKDGKPEMNKQIKNLEISIDTLMAKIKSTMMTQEQIQKEYDALVKSSEELLSALQKKKQQEEEAERLRRIQEEMEKERKRREEDEKRRRKEEEERRMKLEMEAKRKQEEEERKKREDDEKRIQAEVEAQLARQKEEESQQQAVLEQERRDRELALRIAQSEAELISDEAQADLALRRSLDSYPVSKNDGTRPKMTPEQMAKEMSEFLSRGPAVLATKAAAGTKKYDLSKWKYAELRDTINTSCDIELLAACREEFHRRLKVYHAWKSKNKKRNTETEQRAPKSVTDYDFAPFLNNSPQQNPAAQIPARQREIEMNRQQRFFRIPFIRPADQYKDPQSKKKGWWYAHFDGPWIARQMELHPDKPPILLVAGKDDMEMCELNLEETGLTRKRGAEILPRQFEEIWERCGGIQYLQNAIESRQARPTYATAMLQSLLK
notes: Cloned in pGEX2T; also called C-terminal tail fragment of MYO6; source: E. coli, immobilized on Glutathione Sepharose from the crude extract; not shown: GST, N-terminal, kept
B1: the binding result is reported as “binds”.

B2: GST-MYO1C_(809-1063) (domain or fragment, human, UniProt O00159 809-1063, looked up)
chain: LDHVRTSFLLNLRRQLPQNVLDTSWPTPPPALREASELLRELCIKNMVWKYCRSISPEWKQQLQQKAVASEIFKGKKDNYPQSVPRLFISTRLGTDEISPRVLQALGSEPIQYAVPVVKYDRKGYKPRSRQLLLTPNAVVIVEDAKVKQRIDYANLTGISVSSLSDSLFVLHVQRADNKQKGDVVLQSDHVIETLTKTALSANRVNSININQGSITFAGGPGRDGTIDFTPGSELLITKAKNGHLAVVAPRLNSR
notes: Unconventional myosin-Ic (MYO1C), C-terminal tail fragment, amino acids 809-1063, amplified from cDNA of 1306 fibroblast mRNA; Cloned in pGEX2T; also called C-terminal tail fragment of MYO1C; source: E. coli, immobilized on Glutathione Sepharose from the crude extract; not shown: GST, N-terminal, kept
For B2, the binding result is on record as “binds”.
